Assay results: article doi:10.64898/2025.12.29.696898

Biological target: GFP-EBP2 (human) (UniProt Q99848)
Assay: FRET or BRET

Sequence of UniProt Q99848 (Q99848 whole entry): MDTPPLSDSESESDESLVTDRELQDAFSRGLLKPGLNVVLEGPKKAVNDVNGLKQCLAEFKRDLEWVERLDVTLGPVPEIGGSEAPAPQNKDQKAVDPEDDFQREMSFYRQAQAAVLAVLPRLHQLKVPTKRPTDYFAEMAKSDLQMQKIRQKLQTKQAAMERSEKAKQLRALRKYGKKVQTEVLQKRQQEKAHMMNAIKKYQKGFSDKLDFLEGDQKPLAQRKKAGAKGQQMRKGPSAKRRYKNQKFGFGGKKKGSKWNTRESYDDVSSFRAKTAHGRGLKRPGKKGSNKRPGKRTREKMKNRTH

With “EBNA-1-DsRed (from UniProt P03211 1-641) (natural protein)” the mean fluorescence intensity at 588 nm resulting from FRET was 167 and the mean ratio of fluorescence intensity (FI 588 nm/ FI 588 nm + FI 513 nm) was 0.4.
